The values below come from patent US20250320281A1.

What all share (test): cell-based or functional assay
Assay [1] concerns the target HIV-1 93IN905 Env (pseudovirus, clade C) (HIV-1).
Assay [2] deals with HIV-1 94UG103 envelope glycoprotein (Env) on pseudovirus (HIV-1).
Assay [3] has as its target HIV-1 Env of isolate 93IN905 (HIV-1).
Assay [4] deals with HIV-1 Env of isolate MGRM-D-002 (clade D pseudovirus) (HIV-1).
The target of assay [5] is HIV-1 Env of isolate MGRM-D-026 (clade D pseudovirus) (HIV-1).
Assay [6] deals with HIV-1 Env of isolate MGRM-G-009 (HIV-1).
In assay [7] the target is HIV-1 Env of isolate MGRM-G-016 (HIV-1).
Assay [8] deals with HIV-1 Env of isolate THR0.18 (Acute), clade B, on pseudovirus (HIV-1).
Assay [9] deals with HIV-1 Env of pseudovirus MGRM-AE-008 (clade CRF01_AE) (HIV-1).
For assay [10], the target named is HIV-1 Env of pseudovirus MGRM-AG-012 (clade CRF_AG) (HIV-1).
Assay [11] concerns the target HIV-1 Env of pseudovirus MGRM-Chronic-B-012 (HIV-1).
Assay [12] deals with HIV-1 Env of pseudovirus MGRM-Chronic-B-023 (HIV-1).
Assay [13] deals with HIV-1 Env of pseudovirus MGRM-F1-016 (HIV-1).
In assay [14] the target is HIV-1 Env of pseudovirus MGRM-G-001 (clade G) (HIV-1).
Assay [15] has as its target HIV-1 Env of pseudovirus MGRM-G-006 (clade G) (HIV-1).
Assay [16] deals with HIV-1 envelope glycoprotein (Env) of isolate 94UG103, clade A (HIV-1).
Assay [17] concerns the target HIV-1 92BR020 Env (pseudovirus) (HIV-1).
The target in assay [18] is HIV-1 Env of isolate 92WR009 (HIV-1).
Assay [19] addresses HIV-1 Env of isolate 94UG103 (HIV-1).
In assay [20] the target is HIV-1 Env of isolate 98CN006 (HIV-1).
In assay [21] the target is HIV-1 Env of isolate APV-13 (HIV-1).
Assay [22] addresses HIV-1 Env of isolate JRCSF (subtype B) (HIV-1) (UniProt P20871).
Assay [23] concerns the target HIV-1 Env of isolate MG RM-D-019 (HIV-1).
The target in assay [24] is HIV-1 Env of isolate MGRM-A-003 (HIV-1).
For assay [25], the target named is HIV-1 Env of isolate MGRM-AG-002 (subtype AG) (HIV-1).
For assay [26], the target named is HIV-1 Env of isolate MGRM-AG-012 (subtype AG) (HIV-1).
In assay [27] the target is HIV-1 Env of isolate MGRM-C-002 (subtype C) (HIV-1).
The target of assay [28] is HIV-1 Env of isolate MGRM-C-005 (subtype C) (HIV-1).
For assay [29], the target named is HIV-1 Env of isolate NL43 (subtype B) (HIV-1).
Assay [30] deals with HIV-1 Env of pseudovirus isolate MGRM-G-024 (HIV-1).
In assay [31] the target is HIV-1 Env of isolate MGRM-F1-015 (HIV-1).
The target in assay [32] is HIV-1 Env of isolate MGRM-F1-018 (HIV-1).

Chain of 4995_E20 (PGT-142) (antibody) (VH): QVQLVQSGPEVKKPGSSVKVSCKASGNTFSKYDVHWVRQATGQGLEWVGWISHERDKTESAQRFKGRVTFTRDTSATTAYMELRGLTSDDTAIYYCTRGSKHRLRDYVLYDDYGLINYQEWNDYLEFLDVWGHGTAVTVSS
Chain of 4995_E20 (PGT-142) (antibody) (VL): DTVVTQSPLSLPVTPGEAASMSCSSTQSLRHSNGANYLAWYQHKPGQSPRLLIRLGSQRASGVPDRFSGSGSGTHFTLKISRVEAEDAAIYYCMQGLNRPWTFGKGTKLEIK
Chain of 4970_K22 (PGT-144) (antibody) (VH): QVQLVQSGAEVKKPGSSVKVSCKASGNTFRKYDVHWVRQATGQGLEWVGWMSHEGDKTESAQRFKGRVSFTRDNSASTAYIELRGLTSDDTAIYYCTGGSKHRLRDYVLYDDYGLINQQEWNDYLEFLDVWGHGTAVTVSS
Chain of 4970_K22 (PGT-144) (antibody) (VL): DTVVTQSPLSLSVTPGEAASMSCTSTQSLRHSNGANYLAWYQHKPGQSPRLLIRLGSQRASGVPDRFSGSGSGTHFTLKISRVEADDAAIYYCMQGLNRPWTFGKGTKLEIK
Chain of 4980_N08 (PGT-143) (antibody) (VH): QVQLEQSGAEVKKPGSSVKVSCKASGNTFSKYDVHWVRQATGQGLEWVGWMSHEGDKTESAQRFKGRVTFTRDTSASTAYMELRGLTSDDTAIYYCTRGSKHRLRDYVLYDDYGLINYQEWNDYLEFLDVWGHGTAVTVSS
Chain of 4980_N08 (PGT-143) (antibody) (VL): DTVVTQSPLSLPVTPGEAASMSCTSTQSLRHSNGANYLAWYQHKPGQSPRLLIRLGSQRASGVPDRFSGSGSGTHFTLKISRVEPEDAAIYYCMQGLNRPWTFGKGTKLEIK
Chain of 4993_K13 (PGT-141) (antibody) (VH): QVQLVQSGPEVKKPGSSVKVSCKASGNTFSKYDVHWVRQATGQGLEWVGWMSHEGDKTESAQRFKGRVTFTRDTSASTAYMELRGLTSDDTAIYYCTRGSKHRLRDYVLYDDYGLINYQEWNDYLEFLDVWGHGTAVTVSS
Chain of 5345_I01 (PGT-137) (antibody) (VH): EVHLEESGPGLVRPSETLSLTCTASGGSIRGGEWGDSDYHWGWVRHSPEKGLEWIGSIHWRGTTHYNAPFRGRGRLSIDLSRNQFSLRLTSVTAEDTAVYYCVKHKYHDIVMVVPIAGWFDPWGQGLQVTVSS
Chain of 5345_I01 (PGT-137) (antibody) (VL): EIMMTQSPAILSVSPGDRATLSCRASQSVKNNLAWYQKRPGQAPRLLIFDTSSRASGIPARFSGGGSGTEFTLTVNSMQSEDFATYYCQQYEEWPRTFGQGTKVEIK

For the substance 1496_C09 (PG9) (TCN-109) (antibody), the IC50 neutralization in assay [1] is 0.048 µg/mL. In [2], this substance had an IC50, pseudovirus neutralization of 0.173 µg/mL. Moreover, the IC50 in assay [3] was found to be 0.03 µg/mL; in assay [9], 10.6 µg/mL; in assay [10], 1.37 µg/mL; in assay [14], 0.16 µg/mL; in assay [15] it was 0.51 µg/mL. The IC50 (µg/ml), pseudovirus neutralization in assay [4] is 0.027 µg/mL; in assay [5], 17.5 µg/mL; in assay [8], 12.4 µg/mL; in assay [11] it was 0.91 µg/mL; in assay [12], 0.04 µg/mL; in [13], 0.58 µg/mL. The substance also yielded an IC50 (µg/ml), pseudovirus neutralization in assay [16] of 0.24 µg/mL. In addition, the IC50 (µg/mL), pseudovirus neutralization in assay [6] amounted to 10.7 µg/mL; in assay [7], 1.36 µg/mL.

For 4970_K22 (PGT-144) (antibody), the neutralization IC50 (pseudovirus) in assay [17] was over 10 µg/mL. Moreover, the IC50 (µg/mL), pseudovirus neutralization in assay [6] and in assay [7] was over 50 µg/mL each time.

4980_N08 (PGT-143) (antibody) registered a neutralization IC50 (pseudovirus) in assay [17] of over 10 µg/mL. Besides, the IC50 (µg/mL), pseudovirus neutralization in assay [6] came to 2.97 µg/mL; in [7] it was 7.6 µg/mL.

In assay [17], 4993_K13 (PGT-141) (antibody) had a neutralization IC50 (pseudovirus) of over 10 µg/mL. Moreover, the IC50 (µg/mL), pseudovirus neutralization in assay [6] came out at 1.89 µg/mL; in assay [7], 4.69 µg/mL.

The substance 4995_E20 (PGT-142) (antibody) registered a neutralization IC50 (pseudovirus) in assay [17] of over 10 µg/mL. Besides, the IC50 (µg/mL), pseudovirus neutralization in assay [6] amounted to 2.81 µg/mL; in assay [7] it was 8.17 µg/mL.

As to 5114_A19 (PGT-128) (antibody), the results for the IC50 in assay [18], in assay [19] and in [24] were 0.812 µg/mL, 0.011 µg/mL and over 50 µg/mL, respectively. For the same substance, the IC50 (µg/mL), pseudovirus neutralization in [20] was 0.015 µg/mL; in assay [23] it was over 50 µg/mL; in assay [25], 4.99 µg/mL; in assay [26], over 50 µg/mL; in [30], 0.095 µg/mL. The neutralization IC50 in assay [21] is 0.008 µg/mL. Further, the IC50 neutralization is 0.003 µg/mL in assay [22], 0.019 µg/mL in assay [27], 0.03 µg/mL in assay [28] and over 50 µg/mL in assay [29].

Turning to 5136_H01 (PGT-131) (antibody), the IC50 in assay [18] is 3.12 µg/mL; in [19], 1.1 µg/mL; in [24], over 50 µg/mL. The IC50 (µg/mL), pseudovirus neutralization was 35.3 µg/mL in assay [20]; over 50 µg/mL in [23]; over 50 µg/mL in assay [25]; over 50 µg/mL in assay [26]; 10.7 µg/mL in assay [30]. The substance further had a neutralization IC50 in assay [21] of 0.189 µg/mL. Further, the IC50 neutralization in assay [22] was 0.029 µg/mL; in [27], over 50 µg/mL; in assay [28] it was 1.36 µg/mL; in assay [29], over 50 µg/mL.

As for 5345_I01 (PGT-137) (antibody), the IC50 in [18], in [19] and in [24] was over 50 µg/mL each time. Besides, the IC50 (µg/mL), pseudovirus neutralization is 1.22 µg/mL in assay [20]; over 50 µg/mL in [23]; over 50 µg/mL in [25]; over 50 µg/mL in assay [26]; 0.051 µg/mL in [30]. The substance also came in with a neutralization IC50 in assay [21] of over 50 µg/mL. For the same substance, the IC50 neutralization was over 50 µg/mL in [22], 8.03 µg/mL in [27], over 50 µg/mL in [28] and 17.4 µg/mL in assay [29].

PGV04 (antibody) yielded an IC50 in assay [20] of 1.32 µg/mL. Further, the IC50 (µg/mL), pseudovirus neutralization in assay [6] turned out to be 0.043 µg/mL; in [7] it was 0.019 µg/mL.

Take VRC01 (antibody): the values for the IC50 in assay [23], in [31] and in assay [32] were 0.119 µg/mL, 0.387 µg/mL and 0.032 µg/mL, respectively. Further, the IC50 (µg/mL), pseudovirus neutralization in [6] worked out at 0.073 µg/mL; in assay [7] it was 0.063 µg/mL.
